According to the RNAGym collection of RNA variant scans (doi:10.7554/elife.80360):

B1: HDV Ribozyme (parent)
chain: GGCCGGCAUGGUCCCAGCCUCCUCGCUGGCGCCGGCUGGGCAACAUUCCGAGGGGACCGUCCCCUCGGUAAUGGCGAAUGGGACCCA

Variants of: B1
Experiment: self-cleavage, relative activity (ratio to wild type); higher = more cleavage; co-transcriptional

Variant | self-cleavage
G10U U27A | 0.642
G10U U27G | 0.465
G10C U79A | 0.277
G10C U79G | 0.346
G10U U47A | 0.514
G10U U47C | 0.499
G11A C84A | 0.787
G11A C84G | 0.851
G11A C84U | 0.991
G10C G67U | 0.782
G11A G17A | 0.544
G11A G17U | 0.251
G11A G17C | 0.113
G11C C18U | 0.0992
G11C C18A | 0.0804
G11A G28A | 0.0268
G11A G28C | 0.0936
G11A C15G | 0.138
G10U C30U | 0.137
G10U C61A | 0.665
G10U C61G | 0.635
G11A U37G | 0.142
G11A C61A | 0.379
G10C U72C | 0.289

Variant | self-cleavage
G10U C19U | 0.144
G11A C62U | 0.354
G11A C62A | 0.352
G11C C57U | 0.388
G11C C57A | 0.453
G11C C57G | 0.249
G11C C33U | 0.256
G11C C33A | 0.0346
G11C C33G | 0.0396
G10U C24A | 0.328
G10U C24G | 0.0886
G10U C24U | 0.427
G11C A70U | 0.399
G10C U65A | 0.665
G10C U65G | 0.997
G11A G55U | 0.328
G11A G55C | 0.396
G10C G73C | 0.277
G10U G50A | 0.62
G10U G50C | 0.817
G10U G59U | 0.905
G10U G59C | 0.857
G10C G76A | 1.2
G11A G25C | 0.0906

Variant | self-cleavage
G11A G25U | 0.0801
G10U C36U | 0.472
G10U C36G | 0.0615
G11C G25U | 0
G11C G25C | 0.0475
G11C G25A | 0.0449
G11A C18G | 0.041
G11A C18A | 0.0841
G11A C18U | 0.12
G10C G68C | 0.705
G10C G68A | 0.706
G11C A71C | 0.306
G11C A71U | 0.252
G11A G34A | 0.358
G11A G34U | 0.219
G11A A16G | 0.323
G11A A16C | 0.35
G11A G67U | 0.237
G10U C22A | 0.0941
G10U C22G | 0.0623
G10C G59A | 0.895
G10C G59C | 0.785
G10U A51U | 0.767
G10U A51C | 1.09

Variant | self-cleavage
G10U A51G | 0.707
G11A G39C | 0
G11A G39U | 0.0989
G10U C18U | 0.12
G10U C18G | 0.111
G10C G81C | 0.214
G10C G81U | 0.196
G11A A70C | 0.175
G11C C64A | 0.629
G11C C64U | 0.269
G10U U69C | 0.656
G10U U69G | 0.815
G10U G52U | 0.891
G10U G52A | 0.878
G11A C36U | 0.156
G11C C63G | 0.434
G11C C63A | 0.314
G10U U37G | 0.0978
G10U G54U | 0.865
G11A C26U | 1.12
G11A A43U | 0.198
G11A A43C | 0.106
G11C C14A | 0.106
G10U C48G | 0.767

Variant | self-cleavage
G10U C48U | 0.782
G11A U27G | 0.359
G11C C21A | 0.0755
G10U C21A | 0.0332
G10U C21U | 0.0532
G10U C21G | 0
G10U C84U | 0.409
G11C G17A | 0.231
G11C G17C | 0.0536
G11C C48G | 0.399
G11C C48U | 0.119
G11C C58U | 0.242
G11C C58A | 0.378
G11A A56U | 0.487
G10U G80C | 0.0936
G10U G80A | 0.131
G10C U69G | 0.997
G10C U69C | 1.21
G10C U69A | 0.831
G10U C62G | 0.641
G10U C62U | 0.722
G10U C62A | 0.787
G11A A42U | 0.158
G11C C62A | 0.475

Variant | self-cleavage
G10U A43G | 0.0604
G10U A43C | 0.115
G10U A43U | 0.284
G11C A45C | 0.116
G10U C26G | 0.677
G10U C26U | 1.13
G10U C85G | 1.03
G10U C85A | 1.15
G11C C85A | 1.18
G11C C85U | 0.266
G11A G68A | 0.372
G11A G68U | 0.249
G11C C19U | 0.0302
G11C C19A | 0.0314
G11C C19G | 0.0811
G11C A42G | 0.161
G11C A42U | 0.0536
G11C A77U | 0.0462
G11C A77G | 0.138
G11A C33A | 0.151
G11A C33G | 0.0554
G10C G82A | 0.314
G10C G82C | 0.0875
G11C A83U | 0.119

Variant | self-cleavage
G11C C24G | 0.0583
G11C C24U | 0.219
G11C C24A | 0.0898
G10U G35U | 0.337
G10U G35A | 0.604
G10U G35C | 0.0723
G10U G67C | 0.572
G10U G67U | 0.819
G10U G67A | 0.611
G11A U20C | 0
G11A U20A | 0.0623
G11A U20G | 0.0326
G10U C44G | 0.296
G10U C44A | 0.277
G10U C44U | 0.459
G11C A56U | 0.111
G11C A56C | 0.598
G11C A16C | 0.95
G11C C49A | 0.388
G11A U46A | 0.148
G11A U46G | 0.128
G11C C84A | 0.458
G10U U60A | 0.635
G11A G73A | 0.124

Variant | self-cleavage
G11A G73U | 0.0769
G11A G73C | 0.0252
G10U C49U | 0.955
G10U C49A | 0.554
G11C G29A | 0
G10U G53C | 0.773
G10U G53U | 0.699
G10U C41G | 0.619
G11A C63U | 0.376
G11A U60G | 0.399
G11A U60C | 0.43
G10C G74U | 0.166
G10C G74A | 0.119
G10C G74C | 0.161
G10U G11U | 0.344
G10U G11C | 0.237
G11A C30A | 0.106
G11A C30G | 0.0225
G11C C86G | 0.312
G10U G17A | 0.704
G10U G17U | 0.487
G10U A56U | 0.893
G10U A56G | 0.689
G11A G40C | 0.0623

Variant | self-cleavage
G11C | 0.314
G11A | 0.42
G10U U46G | 0.597
G10U U46C | 0.352
G11A A71C | 0.295
G11A A71G | 0.554
G11A A71U | 0.229
G11A C85A | 0.735
G11A C85U | 0.787
G11A U47G | 0.58
G11A U47C | 0.475
G10C U37G | 0.262
G11C C44U | 0.0437
G11C C44A | 0.0923
G11C C44G | 0
G11A A83C | 0.0707
G11A C24U | 0.194
G11A C24A | 0.126
G11A C24G | 0.0747
G11C C15U | 0.0554
G11C C15A | 0.0396
G10U G28A | 0.0791
G10U G39C | 0.138
G10U U79C | 0.0615

Variant | self-cleavage
G11A U12C | 0.0415
G11A U12A | 0.0831
G11A U12G | 0.0875
G10U U20A | 0.0639
G10U U20G | 0.113
G10U C57A | 0.749
G11C A87C | 0.607
G11C A87G | 0.34
G11C C75A | 0.0536
G11C C75G | 0.133
G11A U79G | 0.0923
G11A U79A | 0.0652
G10U C64G | 0.669
G11A A77U | 0.109
G10U C33G | 0.0511
G11A A87G | 0.502
G10C U27G | 0.798
G10C U27A | 0.939
G11C C36A | 0.0536
G10U C66G | 0.717
G10U C66U | 0.728
G11A U72C | 0.121
G11A U72A | 0.179
G11A C21A | 0.11

Variant | self-cleavage
G11A C21G | 0.04
G11A C21U | 0.175
G11A C41U | 0.396
G11A C41G | 0.188
G11A C41A | 0.381
G11A G53U | 0.588
G10U A71C | 0.604
G10U G25U | 0.125
G10U G25C | 0.111
G11A G80C | 0.158
G11A G80A | 0.197
G10U G34A | 0.259
G11A C19A | 0.0811
G11C C66U | 0.289
G10U A42G | 0.325
G10U A42U | 0.174
G10U A42C | 0.149
G11C A51C | 0.35
G11A G52U | 0.548
G11A G52C | 0.521
G10U G55U | 0.787
G10U G55A | 0.893
G10U G38A | 0.103
G10U G38C | 0.058

Variant | self-cleavage
G10C U46G | 0.346
G10C U46C | 0.475
G10C U46A | 0.525
G11A C13A | 0.0791
G11A G31C | 0.0997
G11A G31A | 0.114
G11A G74U | 0.123
G11A G74A | 0.0769
G11A G38C | 0.0911
G11A G38A | 0.102
G11A A51G | 0.374
G11A A51U | 0.468
G11A C44G | 0
G11A C44U | 0.0723
G10C G80A | 0.166
G10U U72G | 0.407
G10C U23A | 1.04
G10C U23G | 0.332
G10U G74A | 0.107
G11A G59C | 0.381
G11A G59U | 0.408
G10U U23G | 0.0791
G10U U23C | 0.62
G10U U23A | 0.604

Variant | self-cleavage
G11C C41U | 0.0831
G11C C41G | 0.712
G10U U12C | 0.0755
G10U U12G | 0.172
G10U U12A | 0.0831
G10U G82A | 0.241
G10U | 0.776
G10U A78G | 0.449
G10U A78C | 0.0499
G11A A78G | 0.193
G10U C86U | 0.867
G10U C86G | 0.445
G10U A83U | 0.177
G10U A83G | 0.221
G10C U12G | 0
G10U G31C | 0.158
G11A C86U | 0.338
G10U G81A | 0.026
G10U C13G | 0
G10U C13A | 0.0332
G10U A77U | 0.174
G10U A77G | 0.424
G10U C14G | 0.166
G10U C14A | 0

Variant | self-cleavage
G10U C75A | 0.0213
G11C A78C | 0.0369
G11C C13G | 0.0437
G11C C13U | 0.0852
G11A G76A | 0.578
G11A G76U | 0.623
G10C U60C | 0.8
G10C U60G | 0.95
G10U C15U | 0.445
G10U C15A | 0.222
G10U C15G | 0.0773
G11A C48U | 0.326
G11A C58A | 0.554
G11A C58U | 0.322
G11A C58G | 0.415
G11A C64G | 0.705
G11A C64U | 0.249
G11A C49G | 0.156
G10U A16U | 0.846
G10U U65G | 0.619
G11C C32A | 0.0437
G11A G29A | 0.0633
